The nanobody polyreactivity screen of Harvey et al. (2022)

Experiment: yeast display, Sf9 membrane polyspecificity reagent, FACS + sequencing; frameworks hold sequencing errors
Method in brief: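 A synthetic nanobody library was expressed on Saccharomyces cerevisiae BJ5465 by galactose induction for 36–48 hours. The library was stained for 1 hour at 4 °C with 10% biotinylated, detergent-solubilized Sf9 membrane reagent and enriched with streptavidin microbeads before FACS. Low and high (top ~1%) gates were set on anti-HA fluorescence for expression and streptavidin fluorescence for reagent binding, and each polyreactivity label reflects the gate of origin.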

Sequence | polyreactivity (PSR sort gate)
QVQLVESGGGLVQAGGSLRISCAASGRIFVSNAAMGWYIQAPGKESELVAAITSRGGRTTYADSVKGRFTSSRDNAKNTVYLQMNSLKPEDTAVYYCAARVRGYDWVRGSPFHHNYWGQGTQVTVSS | high polyreactivity
QVQLVESGGGLVQAGGSLRISCAASGRIFWTYAMGSYRQAPGKERELVAAITWRGGSTSYADSVKGRFTISRDNAKNTVYLQMNSLKPEDTAVYYCAADTYSYLRGTYEYDYWGQGTQVTVSS | high polyreactivity
QVQLVESGGGLVQAGGSLRISCAASGRIFYCYVMGWYRQAPGKERELVAAINLSGTSTYYADSVKGRFTISRDNAKNTVYLQMNSLKPEDTAVYYCAADQVGWTYDYWGQGTQVTVSS | low polyreactivity
QVQLVESGGGLVQAGGSLRISCAASGRILGKYAMGWYRQAPGKESELVAAIRLRGGSTYYADSVKGRFTISRDNEKNSVYLQMNSLKPEDTAVYYCAARYWDRSQAYNDWGQGTQVTVSS | high polyreactivity
QVQLVESGGGLVQAGGSLRISCAASGRISVFNVMGWYIQAPGKERELVAAITSGGSTKYADSVKGRFTISRDNAKNTVYLQMNSLKPEDTAVYYCAALYQFHGKIWDGDYWGQGTQVTVSS | low polyreactivity
QVQLVESGGGLVQAGGSLRISCAASGRIYYRYAMGWYRQAPGKERELVASISGSGGRTYYADSVKGRFTISRDNAKNTVYLQMNSLKPEDTAVYYCAARIRPSYDWGQGTQVTVSS | high polyreactivity
QVQLVESGGGLVQAGGSLRISCAASGRNYSYYAMGWYREAPGKERELVAAITYSGGSTYYADSVKGRFTITRDNAKNTVYLQMNSLKPEDTAVYYCAAGLSIYYWGQGTQVTVSS | low polyreactivity
QVQLVESGGGLVQAGGSLRISCAASGRSFGVNAMGWYRQAPGKERELVAVISSGGSTYYADSVKVRFTISRDNAKNTVYLQMNSLKPEDTAVYYCNAVFGRWFPYNLSDYWGQGTQVTVSS | low polyreactivity
QVQLVESGGGLVQAGGSLRISCAASGRTFALNAMGWYRQAPGKERELVAAISSGGSTYYADSVKGRFTISRDNAKNTVYLQMNSLKPEDTAVYYCAKTSFKYRWSYPVISMDYWGQGTQVTVSS | high polyreactivity
QVQLVESGGGLVQAGGSLRISCAASGRTFDHYAMGWYRPAPGKERELVAAISFSGGSTYYADSVKGRLTISRDNAKNTVYLQMNRLKPEDTAVYYCAADYAYWLSGYDYWGQGTQVTVSS | low polyreactivity
QVQLVESGGGLVQAGGSLRISCAASGRTFDYNAMGWYRQAPGKERELVAAIRFGGGSTYYADSVKGRFTISRDNAKNTVYFQMNSLKPEDTAVYYCNASPLWIGWEIVPVGSSHYDYWGQGTQVTVSS | low polyreactivity
QVQLVESGGGLVQAGGSLRISCAASGRTFFFNAMGWYRQAPGKERELVAAISRTGRTNYADSVKGRFTISRDHAKNTVYLQMNSLKPEDTAVYYCAKTSYYLFGYWGHGTQVTVSS | high polyreactivity
QVQLVESGGGLVQAGGSLRISCAASGRTFGANAMGWYRQAPGKERELVAGITSSGGSTSYADSVKGRFTISRDNAKNTVYLQMNSLKPEDTAVYYCAKDVYQHIFDVILGGYDSWGLGTQVTVSS | low polyreactivity
QVQLVESGGGLVQAGGSLRISCAASGRTFGIYAMGWYIKGPGKERELVADITIGGSTFYADSVKGRFTISRDNAKNTVYLPMNSLKPEDTAVYYCYDDVVVQYYFTYYRFFTYDYWGQGTQVTVSS | low polyreactivity
QVQLVESGGGLVQAGGSLRISCAASGRTFGYYGMGWSRQAPGKERELVAGITSRGGSTYYADSVKGRFTISRDNAKNTVYLQMNSLKPEDTAVYYCNAQYARKYGFWTAYDYWGQGTQVTVSS | high polyreactivity
QVQLVESGGGLVQAGGSLRISCAASGRTFKNYSMGWYRQAPGKERELVAAITSGGITNYADSVKGRFTISRDNAKNTVYLQMNRLKPEDTAVYYCNTRRGWRDFDYWGQGTQVTVSS | low polyreactivity
QVQLVESGGGLVQAGGSLRISCAASGRTFRPYPMGWYRQAPGKDRELVAAIDSSGTSTYYADSVKGRFTISRDNAKNTVYLQMNSLKPEDTAVYYCAKAWPDHWYSRYDYWGQGTQVTVSS | low polyreactivity
QVQLVESGGGLVQAGGSLRISCAASGRTFVGNAMGWYRQAPGKERELVAAMTLSDGSTYYADSVKGRFTISRDIAMNTVYLQMNSLKPEDTAVYYCNAGDGPDEEYDYWGQVTQVTVSS | low polyreactivity
QVQLVESGGGLVQAGGSLRISCAASGRTFYANAMGWYRQAPGKERELVAAISSNGGSTYYADSVKGRFTISRDNAKNTVYLQMNSLKPEDTAVYYCAVVSRYIAWRKYDYCGQGTQVTVSS | high polyreactivity
QVQLVESGGGLVQAGGSLRISCAASGRTFYGYTMGWDRQAPGKERELVAAISRNGASTFYADSVKGRFTISRDNAKNTVYLQMNSLKPEDTAVYYCNARSWRHTDTSFEYWGQGTQVTVSS | high polyreactivity
QVQLVESGGGLVQAGGSLRISCAASGRTFYINAMGWYRQAPGKVWELVASISRSGGGTYYADSVKGRFTISRDNAKNNVYLQMNCLKPEDTAVYYCAAYSWSYSGYNFWGQGTQVTVSS | high polyreactivity
QVQLVESGGGLVQAGGSLRISCAASGRTFYQYDMGWYRQAPGKERELVAAIDWSGGSTYYADSVKGRFTISRDNAKNTVYLQMNSLKPEDTAVYYCNADAYPHPVVGYDYWGQGTQVTVSS | low polyreactivity

Sequence | polyreactivity (PSR sort gate)
QVQLVESGGGLVQAGGSLRISCAASGSIFATYAMGWYRQAPGKERELVAAISWSSGSTYYADSVKGRFTISRDNAKNTVYLQMNSLNPEDTAVYYCNKDWLAYDSLRVTSTIAFDYWGQGSQVTVSS | low polyreactivity
QVQLVESGGGLVQAGGSLRISCAASGSIFDTNPMGWYRQAPGKERELVAAITSSGASTYYADSVKGRFTISRDNAKNTVYLQMNSLKPEDTAVYYCAADGAVDGGYWGQGTQVTVSS | low polyreactivity
QVQLVESGGGLVQAGGSLRISCAASGSIFGGYAMGWYRQAPGKERELVAAISSGGSTYYADSVKGRFTISRDNAKNTVYLQMNSLKPEDTAVYYCATSTYAYRRNSYYYTRPRFGYWGQGTQVTVSS | high polyreactivity
QVQLVESGGGLVQAGGSLRISCAASGSIFGYYAMGWYRQAPGKERELVAAITRSGGSTYYADSVKGRFTISRDNAKNTVYLQMNSLKPEDTAVYYCAAYYGHLYYTFDYWGQGTQVTVSS | low polyreactivity
QVQLVESGGGLVQAGGSLRISCAASGSIFHDNAMGWYRQAPGKERELVAASTTSGGNTYYADSVKGRFTISRDNAKNTVYLLMNSLKPEDTAVYYCAAGQSVFASWLDNGWSAYTYYYWGQGTQVTVSS | low polyreactivity
QVQLVESGGGLVQAGGSLRISCAASGSIFLLYTMGWYRQAPGKEREMVATITSSGGSTYYADSVKGRFTISRDNAKNTVYLHMNSLKPEDTAVYDCNAVGSTWGSFVRYGAQYDYWGQGTEVTVSS | low polyreactivity
QVQLVESGGGLVQAGGSLRISCAASGSIFQFNAMGWSRQAPGKERELVASISASGGSTYYADSVKGRFTISRDNAKNTVYLQMNSLKPEDTAVYYCAADFIRSWFIWRGSFDYWGLGTQVTVSS | low polyreactivity
QVQLVESGGGLVQAGGSLRISCAASGSIFQGYAMGWYRQAPGKERELVATITWSGGSTYYADSVTGRFTISRDNAKNTVYLQMNSLKPEETAVYYCNADSNGYYLWNYYGMYDYWGQGTEVTVSS | low polyreactivity
QVQLVESGGGLVQAGGSLRISCAASGSIFRRNAMGWYRQAPGKERELVATITSDGSTDYADSVKGRFTISRDNAKYTVYLQMNRLKPEDTVYYCAAGRTPYWHATFGYWGQGTQVTVSS | low polyreactivity
QVQLVESGGGLVQAGGSLRISCAASGSNFASYAMGWYRQAPGKERELVSVITSGGRTYYADSVKGRFTISRDNAKNTVYLQMNSLKPEDTAVYYCKAYLFFLNRVWSFDYWGQGTQVTVSS | high polyreactivity
QVQLVESGGGLVQAGGSLRISCAASGSNFNPYDMGGYRQAPGKESELVAAIRTAGSTYYADSVKGRFTISRDNAKNTVYLQMISLNPEDTAVYYCNADEGFLYSAYEYDYWGQGTQVTVSS | low polyreactivity
QVQLVESGGGLVQAGGSLRISCAASGSNFTQYDMGWYRQAPGKERELVAAITSGGSTDYADSVKGRFTISRDNAKNTVYLQMNSLKPEDTAVYYCNAEAYPYWYRGASREYDYWGQGTQVTVSS | low polyreactivity
QVQLVESGGGLVQAGGSLRISCAASGSTFGRNAMGWYSQAPGKERELVAAISSGGSTSYADSVKGRFTISRDNAKYTVYLQMNSLKPEDTAVYYCAAHSVGSQYDYWGQGTQVTVSS | low polyreactivity
QVQLVESGGGLVQAGGSLRISCAASGSTFYPNAMGWYRPAPGTERELVAAIRGTGGSTYADSVKGRFTISRDNAKNTVYLQMNSLKPEDTAVYYCAAAGWTYRVEKYSVRLTGYDYWGQGTQVTVSS | high polyreactivity
QVQLVESGGGLVQAGGSLRISCAASGSTIAGYTMGLYRQAPGKEMELVAAISRRGSRTYYADSVKGRFTISRDNAKNTVYLQMNSLKPEDTAVYYCNARNRVYYTLSGYGYWGQGTQVTVSS | high polyreactivity
QVQLVESGGGLVQAGGSLRISCAASGSTLYRNAMGWYRQAPGKERELVAAISRTGGRTYYADSVKGRCTISRDNANNTVYLQMNSLKPEETAVYYCNTLTPSYTSGTHTFYSWGQGTQVTVSS | high polyreactivity
QVQLVESGGGLVQAGGSLRISCAASRSIFPLNAMGWYRQAPGKERELVAAITRSGGSTYYADSVKGRFTISRDNAKNTVYLQMNSLKPEDTAVYYCATDPEWPLPAYYYWGQGTQVTVSS | low polyreactivity
QVQLVESGGGLVQAGGSLRISCADSGSIFGYNAMGWYRQAPGKERELVAAISWSGGRTYYADSVKGRFTISRDNAKNTVSFQMNSLKPEDTAVYYCAAPSTGTYGSDYWGHGTQVTVSS | high polyreactivity
QVQLVESGGGLVQAGGSLRISCAPSGITLRRNAMGRYRQAPGKERELVARISTTGGSTYYADSVKGRFTISRDNAKNTVYLQMNSLKPEDTAVYYCAARAPLGFWHYDYWGQGTQVTVSS | high polyreactivity
QVQLVESGGGLVQAGGSLRISCAPSGSIFSDYAMGWYRQAPGKERELVATISSSGSTNYADSVKGRFTISRDNAKNTVYLQMNSLKPEDTAVYYCAAARLFAMDYWGQGTQVTVSS | low polyreactivity
QVQLVESGGGLVQAGGSLRISCAPSGSTFPRYAMGWYRQAPGKEREFVAVIWSGGSTYYADSVKGRFTISRDNAKNTVYLQMNSLKPEDTAVYYCAAEYHTLSKYSGYATHDYWGQGTQVTVSS | low polyreactivity
